Laboratory results from patent US20230235068A1.

Molecular target: extracellular domain portion of LEPR protein expressed with a C-terminal human Fc tag (human)
Assay: competition ELISA, 10 nM hLEPR-hFc binding to coated hLeptin; soluble hLeptin as competitor

Chain of extracellular domain portion of LEPR protein expressed with a C-terminal human Fc tag (human) (chain, as listed by the source limits assumed): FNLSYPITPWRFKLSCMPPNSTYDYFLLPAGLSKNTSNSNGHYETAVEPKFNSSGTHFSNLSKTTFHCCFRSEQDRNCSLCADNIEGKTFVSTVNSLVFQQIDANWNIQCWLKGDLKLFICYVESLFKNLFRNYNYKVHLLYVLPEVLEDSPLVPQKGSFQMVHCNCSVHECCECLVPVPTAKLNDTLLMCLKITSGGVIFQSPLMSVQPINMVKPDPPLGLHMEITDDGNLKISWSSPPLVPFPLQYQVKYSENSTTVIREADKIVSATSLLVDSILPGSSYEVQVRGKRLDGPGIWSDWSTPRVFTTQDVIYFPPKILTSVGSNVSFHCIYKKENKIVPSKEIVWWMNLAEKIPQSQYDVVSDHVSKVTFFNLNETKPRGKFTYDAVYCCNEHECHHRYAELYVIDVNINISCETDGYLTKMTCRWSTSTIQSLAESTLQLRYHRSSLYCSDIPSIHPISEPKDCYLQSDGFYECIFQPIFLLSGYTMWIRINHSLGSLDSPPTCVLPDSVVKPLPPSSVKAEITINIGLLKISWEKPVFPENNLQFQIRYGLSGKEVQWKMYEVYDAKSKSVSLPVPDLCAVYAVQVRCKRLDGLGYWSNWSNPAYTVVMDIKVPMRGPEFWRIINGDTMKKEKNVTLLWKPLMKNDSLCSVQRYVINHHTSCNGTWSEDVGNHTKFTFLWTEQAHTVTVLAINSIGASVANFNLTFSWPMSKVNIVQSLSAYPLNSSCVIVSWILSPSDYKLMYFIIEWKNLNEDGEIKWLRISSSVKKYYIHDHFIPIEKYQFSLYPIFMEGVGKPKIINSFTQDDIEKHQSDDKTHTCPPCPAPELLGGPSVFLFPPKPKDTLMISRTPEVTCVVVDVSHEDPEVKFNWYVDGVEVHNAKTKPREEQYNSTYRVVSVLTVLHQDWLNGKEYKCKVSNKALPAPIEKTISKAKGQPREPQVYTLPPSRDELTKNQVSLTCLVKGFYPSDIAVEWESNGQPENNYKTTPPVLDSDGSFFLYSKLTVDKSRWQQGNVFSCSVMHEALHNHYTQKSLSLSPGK

% blockade at 500 nM: 99%
Substance: human Leptin (from UniProt P41159 22-167) (ligand)
